Where two headings read alike, the source gives them in different places. *1 amine or outer side, *2 acyl side, *3 side chain or, on linkers, in order; H or OH if unused. Where a SMILES comes first, the peptide text is derived from it. [ ]: non-standard residue; d: D form. The star is where a group is joined. ξ: configuration not given here. NPrTuv(OPr) = CCCO[C@H](C[C@H](C(C)C)N(CCC)[*:1])c1nc(C(=O)[*:2])cs1; Dolaproine = CO[C@@H]([C@@H]1CCCN1)[C@@H](C)C(=O)O; Hexanoyl(6-maleimido) = O=C1C=CC(=O)N1CCCCCC(=O)*; X1 = COC(=O)[C@@H](C)C[C@H](Cc1ccc(O)cc1)N*; Dil = CC[C@H](C)[C@H](NC)[C@@H](CC(=O)O)OC; PABC = O=C(OCc1ccc(N[*:1])cc1)[*:2]; X2 = C[C@@H](N*)[C@@H](O)c1ccccc1; Cit = NC(=O)NCCC[C@H](N)C(=O)O; NMeV = CN[C@H](C(=O)O)C(C)C; ξIle = CC[C@H](C)C(N)C(=O)O; dPip = O=C(O)[C@H]1CCCCN1
Tests used:
[1] = system: HT1080 cells; experiment: Cell proliferation arrest on HT1080 cells (CPA; crystal violet); assay type: cell-based
Description: Microtubule inhibition activity and cytotoxic activity of each new derivative were evaluated through tubulin polymerization inhibition assay (TPI; Tubulin Polymerization assay kit; Cytoskeleton, Cat. #BKO11P), and cell proliferation arrest on HT1080 cells (CPA; crystal violet).

[2] = system: HT1080-FAP cell line; assay type: cell-based; settings: crystal violet viability, FIG. 6, read-out: cytotoxic activity IC50
[3] = Table 3, published data; cited from earlier work
[4] = system: rabbit reticulocyte cell-free lysates
[5] = Melting point by dynamic light scattering (zetasizer nano); assay type: physicochemical; settings: thermal stability
Description: (§1) Purified proteins A5-IgG and mE12-IgG were characterized by SDS-PAGE and size exclusion chromatography. Bioactivity was analyzed by ELISA, using recombinant mouse/human ENG and detection of bound antibodies with HRP-conjugated anti-human IgG antibodies. Cell binding was analyzed by flow cytometry, using ENG-positive HT1080 and ENG expressing mouse eEnd2. Melting points were determined by dynamic light scattering using a zetasizer nano. Affinities were determined by QCM using an Attana A100. Internalization study was performed by indirect immunofluorescence confocal microscopy on permeabilized cells, detecting bound and internalized antibodies with a FITC-labeled secondary antibody.

[6] = system: HT1080 cells; experiment: Internalization by indirect immunofluorescence confocal microscopy; assay type: cell-based, human
Description: as §1
Preliminary internalization studies indicate rapid cellular internalization for A5-IgG against cells expressing human ENG. Indeed within 30 min, almost 90% of the A5-IgG is found within HT1080 cells.

[7] = biological target: T1, recombinant human ENG (Homo sapiens, UniProt P17813); experiment: ELISA binding to immobilized recombinant human ENG; settings: FIG. 3a
T1 sequence (P17813 whole entry, looked up): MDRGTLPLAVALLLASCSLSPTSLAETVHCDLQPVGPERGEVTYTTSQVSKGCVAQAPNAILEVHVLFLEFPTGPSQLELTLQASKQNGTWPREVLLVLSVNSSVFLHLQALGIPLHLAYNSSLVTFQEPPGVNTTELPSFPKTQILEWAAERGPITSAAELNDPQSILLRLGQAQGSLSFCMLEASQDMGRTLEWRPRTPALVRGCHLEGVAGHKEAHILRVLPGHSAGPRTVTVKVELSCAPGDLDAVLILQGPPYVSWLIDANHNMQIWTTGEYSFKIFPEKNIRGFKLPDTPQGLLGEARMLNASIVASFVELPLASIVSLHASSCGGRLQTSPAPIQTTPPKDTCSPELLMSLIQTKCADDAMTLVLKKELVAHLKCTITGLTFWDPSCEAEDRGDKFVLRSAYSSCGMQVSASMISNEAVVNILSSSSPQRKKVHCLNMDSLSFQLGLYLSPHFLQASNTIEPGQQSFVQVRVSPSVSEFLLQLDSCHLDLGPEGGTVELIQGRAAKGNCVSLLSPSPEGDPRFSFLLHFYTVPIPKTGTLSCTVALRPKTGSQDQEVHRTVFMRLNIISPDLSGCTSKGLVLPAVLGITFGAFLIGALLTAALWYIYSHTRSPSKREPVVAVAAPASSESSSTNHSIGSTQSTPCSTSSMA
Description: Bioactivity was analyzed by ELISA using recombinant ENG and detection of bound antibodies with HRP-conjugated anti-human IgG antibodies.

[8] = system: HT1080 cells; experiment: Flow cytometry cell binding, ENG-positive HT1080 cells; set-up: species or system human; settings: FIG. 3b
Description: Purified anti-muENG mE12 and anti-huENG A5 antibodies were analyzed in ELISA for binding to recombinant ENG and using flow cytometry analysis (FACS).
as §1

[9] = system: PAXF-736 pancreas cancer xenograft; experiment: Anti-tumoral effect in patient-derived xenograft mouse model for pancreas cancer (PAXF-736); assay type: in vivo
Description: Both types of immunoconjugates, recNgA- and cytolysin-conjugates, were evaluated for their anti-tumoral effect in vivo in a patient-derived xenograft mouse model for pancreas cancer (PAXF-736), previously selected for antigen expression.
Immunoconjugates were then administrated once a week intraperitoneally over 5 weeks. Tumor volume and body weight were measured every 2-3 days. Vehicle-treated and Gemcitabine-treated (150 mg/kg) PDX mice were used as negative and positive control groups, respectively.

Molecule: CCCO[C@H](C[C@H](C(C)C)N(CCC)C(=O)[C@@H](NC(=O)[C@H]1CCCCN1C)[C@@H](C)CC)c1nc(C(=O)N[C@@H](Cc2ccc(O)cc2)C[C@H](C)C(=O)NNC(=O)OCc2ccc(NC(=O)[C@@H](CCCNC(N)=O)NC(=O)[C@H](NC(=O)CCCCCN3C(=O)C=CC3=O)C(C)C)cc2)cs1 [TAM471, Maleimido-Val-Cit-PABOCO-Tubulysin/Cytolysin-TAM470]
- IC50 ([1]; Homo sapiens, HT-1080): 17 to 42 nM

Molecule: CC[C@H](C)[C@@H]([C@@H](CC(=O)N1CCC[C@H]1[C@H](OC)[C@@H](C)C(=O)N[C@H](C)[C@@H](O)c1ccccc1)OC)N(C)C(=O)[C@@H](NC(=O)[C@@H](NC)C(C)C)C(C)C [MMAE, reference compound] (H-[NMeV]V[Dil][Dolaproine]-X2)
- IC50 [1]: 0.1 to 0.6 nM

Molecule: CCCO[C@H](C[C@H](C(C)C)N(CCC)C(=O)[C@@H](NC(=O)[C@H]1CCCCN1C)[C@@H](C)CC)c1nc(C(=O)N[C@@H](Cc2ccc(O)cc2)C[C@H](C)C(=O)NNC(=O)OCCOCCOCCOCCNC(=O)CCCCCN2C(=O)C=CC2=O)cs1 [TAM552]
- IC50 ([1]; Homo sapiens, HT-1080): 10 nM

Molecule: CC[C@H](C)[C@H](NC(=O)[C@H]1CCCCN1C)C(=O)N(COC(=O)CC(C)C)[C@H](C[C@@H](OC(C)=O)c1nc(C(=O)N[C@@H](Cc2ccc(O)cc2)C[C@H](C)C(=O)O)cs1)C(C)C [Tubulysin A, reference compound]
- IC50 [1]: 0.04 to 0.2 nM

Molecule: Nigrin b: native (WT) Nigrin b, type 2 ribosome-inactivating protein with A and B chains
- IC50 [2]: ~20 nM
- Mouse LD50 [3]: 12,000.00 μgkg^−1
- IC50 [4]: ~0.0025 nM

Molecule: CCCO[C@H](C[C@H](C(C)C)N(CCC)C(=O)C(NC(=O)[C@H]1CCCCN1C(=O)OCc1ccc(NC(=O)[C@H](CCCNC(N)=O)NC(=O)[C@@H](NC(=O)CCCCCN2C(=O)C=CC2=O)C(C)C)cc1)[C@@H](C)CC)c1nc(C(=O)N[C@@H](Cc2ccc(O)cc2)C[C@H](C)C(=O)OC)cs1 (stereo partly drawn) [TAM467, Maleimido-Val-Cit-PABOCO-Tubulysin/Cytolysin-TAM461] ({Hexanoyl(6-maleimido)}-V[Cit][PABC][dPip][ξIle][NPrTuv(OPr)]-X1)
- IC50 ([1]; Homo sapiens, HT-1080): 230 to 420 nM

Molecule: CCCO[C@H](C[C@H](C(C)C)N(CCC)C(=O)[C@@H](NC(=O)C(C(C)C(=O)OCc1ccc(NC(=O)[C@H](CCCNC(N)=O)NC(=O)[C@@H](NC(=O)CCCCCN2C(=O)C=CC2=O)C(C)C)cc1)[C@@H](C)CC)[C@@H](C)CC)c1nc(C(=O)N[C@@H](Cc2ccccc2)C[C@H](C)C(=O)O)cs1 (stereo partly shown) [TAM551]
- IC50 ([1]; Homo sapiens, HT-1080): 90 nM

B1: A5-IgG1: human anti-human Endoglin IgG1; heavy chain SEQ ID NO: 3, light chain SEQ ID NO: 4; ADCC/CDC deficient (antibody)
heavy: EVQLLESGGGLVQPGGSLRLSCAASGFTFSSYAMSWVRQAPGKGLEWVSAIYGSDGDTTYADSVKGRFTISRDNSKNTLYLQMNSLRAEDTAVYYCARVFYTAGFDYWGQGTLVTVSSASTKGPSVFPLAPSSKSTSGGTAALGCLVKDYFPEPVTVSWNSGALTSGVHTFPAVLQSSGLYSLSSVVTVPSSSLGTQTYICNVNHKPSNTKVDKKVEPKSCDKTHTCPPCPAPPVAGPSVFLFPPKPKDTLMISRTPEVTCVVVDVSHEDPEVKFNWYVDGVEVHNAKTKPREEQYNSTYRVVSVLTVLHQDWLNGKEYKCKVSNKGLPSSIEKTISKAKGQPREPQVYTLPPSRDELTKNQVSLTCLVKGFYPSDIAVEWESNGQPENNYKTTPPVLDSDGSFFLYSKLTVDKSRWQQGNVFSCSVMHEALHNHYTQKSLSLSPGK
light: DIELTQSPSSLSASVGDRVTITCRASQSISSSLNWYQQKPGKAPKLLIYAASSLQSGVPSRFSGSGSGTDFTLTISSLQPEDFATYYCQQAPAKPPTFGQGTKLEIKRTVAAPSVFIFPPSDEQLKSGTASVVCLLNNFYPREAKVQWKVDNALQSGNSQESVTEQDSKDSTYSLSSTLTLSKADYEKHKVYACEVTHQGLSSPVTKSFNRGEC
modifications: Synthetic sequence A5-IgG1-HC - without signal sequence; Synthetic sequence A5-IgG1-LC - without signal sequence
- Tm (DLS) [5]: 72 °C
- internalization (time) ([6]; HT1080): 30 to 60 min
- share of antibody found within cells ([6]; HT1080 cells, within 30 min, preliminary): ~90%
- binding to human ENG by ELISA, in words [7]: concentration-dependent binding
- binding to human ENG by flow cytometry, in words [8]: concentration-dependent binding

B2: OMTX505: recNgA immunoconjugate tested in vivo (conjugate)
heavy: QVQLVQSGAEVKKPGASVKVSCKASGYTFTENIIHWVRQAPGQGLEWMGWFHPGSGSIKYNEKFKDRVTMTADTSTSTVYMELSSLRSEDTAVYYCARHGGTGRGAMDYWGQGTLVTVSSASTKGPSVFPLAPSSKSTSGGTAALGCLVKDYFPEPVTVSWNSGALTSGVHTFPAVLQSSGLYSLSSVVTVPSSSLGTQTYICNVNHKPSNTKVDKKVEPKSCDKTHTCPPCPAPPVAGPSVFLFPPKPKDTLMISRTPEVTCVVVDVSHEDPEVKFNWYVDGVEVHNAKTKPREEQYNSTYRVVSVLTVLHQDWLNGKEYKCKVSNKGLPSSIEKTISKAKGQPREPQVYTLPPSRDELTKNQVSLTCLVKGFYPSDIAVEWESNGQPENNYKTTPPVLDSDGSFFLYSKLTVDKSRWQQGNVFSCSVMHEALHNHYTQKSLSLSPGK
light: DIQMTQSPSSLSASVGDRVTITCRASKSVSTSAYSYMHWYQQKPGKAPKLLIYLASNLESGVPSRFSGSGSGTDFTLTISSLQPEDFATYYCQHSRELPYTFGQGTKLEIKRTVAAPSVFIFPPSDEQLKSGTASVVCLLNNFYPREAKVQWKVDNALQSGNSQESVTEQDSKDSTYSLSSTLTLSKADYEKHKVYACEVTHQGLSSPVTKSFNRGEC
chain: MIDYPSVSFNLDGAKSATYRDFLSNLRKTVATGTYEVNGLPVLRRESEVQVKSRFVLVPLTNYNGNTVTLAVDVTNLYVVAFSGNANSYFFKDATEVQKSNLFVGTKQNTLSFTGNYDNLETAANTRRESIELGPSPLDGAITSLYHGDSVARSLLVVIQMVSEAARFRYIEQEVRRSLQQATSFTPNALMLSMENNWSSMSLEIQQAGNNVSPFFGTVQLLNYDHTHRLVDNFEELYKITGIAILLFRCSSPSND
- in vivo anti-tumoral efficacy ([9]; 0.5 mg/kg, once a week i.p. over 5 weeks, single agent): 60%
- tumor growth inhibition ([9]; combined with Gemcitabine, tumor regression): 100%
